Experiment: yeast display, Sf9 membrane polyspecificity reagent, FACS + sequencing; frameworks hold sequencing errors
Outline: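 Nanobodies came from a synthetic yeast display library in Saccharomyces cerevisiae BJ5465, induced with galactose for 36–48 hours and stained for 1 hour at 4 °C with 10% biotinylated, detergent-solubilized Sf9 membrane reagent. Cells were enriched on streptavidin microbeads and then FACS-sorted, with low and high (top ~1%) gates set on anti-HA fluorescence for expression and streptavidin fluorescence for reagent binding. Each polyreactivity label reflects the gate a clone came from. Genes were amplified by colony PCR, sequenced by MiSeq 2 × 250 and filtered by CDR length.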

Sequence	polyreactivity (PSR sort gate)
QVQLVESGGGLVQAGGSLRLSCAASGYIFRHYAMVWYRQAPGKERELVAAISSSGGRTNYADSLKGRFTISRDNAKITVYLQMNSLKPEDTAVYYCNAGRYQYLGGYGYWGQGTQVTVSS	low polyreactivity
QVQLVESGGGLVQAGGSLRLSCAASGYIFRIYAMGWYRQAPGKERELVATITNGGSTHYADSVKGRFTISRDNAKNTVYLQMNSLKPEDTAVYYCAADLLYSEYDYWGQGTQVTVSS	high polyreactivity
QVQLVESGGGLVQAGGSLRLSCAASGYIFRQNAMGWYRQAPGKERELVAAISRSDDNTFYADSVKGRFTISRDNAKNTVYLLMNSLKPEDTAVYYCAKYAVPWRYPRGYDYWGQGTQVTVSS	low polyreactivity
QVQLVESGGGLVQAGGSLRLSCAASGYIFRWYAMGWYRQAPGKERELVAAISGRGGRTYYADSVKGRFTISRDNAKNTVYLQMNSLKPEDTAVYYCAAVPVVQSQPTYYYWGQGTQVTVSS	high polyreactivity
QVQLVESGGGLVQAGGSLRLSCAASGYIFSGYAMGWYRQAPGKERELVAAISSNGGSTYYADSVKGRFTISRDNAKNTVNLQMNSLKPEDTAVYYCNRGLAARVGRGDYWGQGTQVTVSS	low polyreactivity
QVQLVESGGGLVQAGGSLRLSCAASGYIFSLYAMGWYRQAPGKERELVADITTSAGSTYYADSVKGRFTISRDNAKNTVYLQMNSLKPEDTAVYYCAADVYGHTYYDYDYWGQGTQVTVSS	low polyreactivity
QVQLVESGGGLVQAGGSLRLSCAASGYIFTEYAMGWYRQAPGKERELVAAIDWSGGSTYYADSVKGRFTISRDNAKNTVYLQMNSLKPEDTAVYYCAKYYYTSIVGYDSWGQGTQVTVSS	low polyreactivity
QVQLVESGGGLVQAGGSLRLSCAASGYIFTRNAMGWYRQAAGKERELVATISSRGGRTYYADSVKGRFTISRDNAKNTVYLQMNSLKPEDTAVYYCAATPWYRTRTYDYWGQGSQVTVSS	high polyreactivity
QVQLVESGGGLVQAGGSLRLSCAASGYIFTYNAMGWYRQAPGKERELVAAISSGGSTNYADSVKGRFTISRDNAKNTVYLQMNSLKPEDTAVYYCAAPVWTYDDYFSYSYSYGYWGQGTQVTVSS	low polyreactivity
QVQLVESGGGLVQAGGSLRLSCAASGYIFVHYAMGWYRQEPGKERELVAAISKSGSSTYYADSVKGRFTISRDNAKNTVYLQMHSLKPEDTAVYYCAGVYPYVSGYTYGYWGQGTQVTVSS	low polyreactivity
QVQLVESGGGLVQAGGSLRLSCAASGYIFVKNAMGWYRQAPGTERELVAAISTRGGRTYYADSVKGRFTISRDNAKNTVYLQMNSLKPEDTAVYYCAAVHQTSYYDANSYGYWGQGTQVTVSS	high polyreactivity
QVQLVESGGGLVQAGGSLRLSCAASGYIFVTNAMGWYRQAPGKERELVAAISYRGGSTSYADSVKGRFTISRDNAKNTVYLQMNSLKPEDTAVYYCNAVTFPLGYLRFYYWGQGTQVTVSS	low polyreactivity
QVQLVESGGGLVQAGGSLRLSCAASGYIFVTNAMGWYRQAPGKERELVAAISYRGGSTSYADSVKGRFTISRDNAMNTVYLQMNSLKPEDTAVYYCNAVTFPLGYLRFYYWGQGTQVTVSS	low polyreactivity
QVQLVESGGGLVQAGGSLRLSCAASGYIFWENAMGWYRPAPGKERELVAAITVSGGGTYYADSVKGRFTISRDNAKNTVYLQRNSLKPEDTAVYYCAADEDNPWLWFYYWGQGTQVTVSS	low polyreactivity
QVQLVESGGGLVQAGGSLRLSCAASGYIFWENAMGWYRQAPGKERELVAAITVSGGGTYYADSVKGRFTISRDNAKNTVYLQMNSLEPEDTAVYSCAADEDNPWLWFYYCGQGTQVTVSS	low polyreactivity
QVQLVESGGGLVQAGGSLRLSCAASGYIFYDNAMGWYRQAPVKERELVAAISASGGDTYYADSVKGRFTISRDNAKNTVYLQMNSLKPDDTAVYYCAADLITYAMEYWGQGTQVTVSS	low polyreactivity
QVQLVESGGGLVQAGGSLRLSCAASGYIFYFYAMGWYRQAPGKERELVAAISSSGGSTRYADSVKGRFTISRDNAKNTVYLQMNSLKPEDTAVYYCAASHWSGAAWYYYWGQGTQVSVSS	high polyreactivity
QVQLVESGGGLVQAGGSLRLSCAASGYIFYNAMGWYRQAPGKERELVASISRRSGSTYYADSVKGRFTISRDNAKNTVYLQMNSLKPEDTAVYYCAADRPPWETYGYDYWGQGTQVTVSS	low polyreactivity
QVQLVESGGGLVQAGGSLRLSCAASGYIISYNTMGWYRPAPGKERELVASIRWGGGRTYYADSVKGRFTISRDNAKNTVYLQLNSLKPEDTAVYYCNVKSSRFLDVGRMEYWGQGTQVTVSS	high polyreactivity
QVQLVESGGGLVQAGGSLRLSCAASGYILDVYAMGWYRQAHGKERELVAVITWRTDSTYYADSVKGRFTISRDNAKNTVYLQMNSLKPEDTAVYYCAKVLRLSKYRYYYWGQGTQVTVSS	high polyreactivity
QVQLVESGGGLVQAGGSLRLSCAASGYILGKNVMGWYRPAPGKERELVAAISSGGRTYYADSVKGRFTISRDNAKNTVYLQMNSLKPEDTAVYYCAPDLKYYGYDYWGQGTQVTVSS	high polyreactivity
QVQLVESGGGLVQAGGSLRLSCAASGYILQKYAMGWYRQAPGKERELVATISGGGGSTYYADSVKGRFTISRDNAKNTVYLLMNSLKPEDTAVYYCAKEYPWLPRSYEYWGQGTQVSVSS	low polyreactivity

Sequence	polyreactivity (PSR sort gate)
QVQLVESGGGLVQAGGSLRLSCAASGYILRNAMGWYRQAPGKERELVAAIRFRGGSTSYADSVKGRFTISRYNAKNTVYLQMKSLKPEDTAVYYCNALWWVIRPYQRHDYWGQVTQVTVSS	low polyreactivity
QVQLVESGGGLVQAGGSLRLSCAASGYILRRNAMGWYRQAPGKERELVARINSSGGSTYYADSVKGRFTISRDNAKNTVYLQMNSLKPEDTAVYYCAKSYYRGRDYWGQGTQVTVSS	high polyreactivity
QVQLVESGGGLVQAGGSLRLSCAASGYILYANTMGWYRQAPGKERELVAAISGGGSTNYADSVKGRFTISRDNAKNTVYLQMNSLKPEDTAVYYCAVKTNQAGYDYWGQGTQVTVSS	low polyreactivity
QVQLVESGGGLVQAGGSLRLSCAASGYISNANAMGCYRQAPGKERELVAAITWSGGSTYADSVKGRFTITRDNAKNTVYLQMNSLKPEDTAVYYCAVGPYRVAKYNYWGQGTQVTVSS	low polyreactivity
QVQLVESGGGLVQAGGSLRLSCAASGYISYYYAMGWYREAPGKEREFVAGISWSGGSTYYADPVKGRFTISRDNAKNTVYLQMNSLKPEDTAVYDCAARLSRWWPPTGVHYSDRYYGGQGTQVTVSS	high polyreactivity
QVQLVESGGGLVQAGGSLRLSCAASGYISYYYAMGWYRQAPGKEREFVAGISWSGGSTYYADPVKGRFTISRDNAKNTVYLQMNSLKTEDTAVYYCAARLSRWWPPTRVHYTDRYYWGQGTQVTVSS	high polyreactivity
QVQLVESGGGLVQAGGSLRLSCAASGYLIGGNAMGWYRQAPGKERELVAVISSRAGRTYYADSVKGRFTISRDNAKNTVYLQMNSLKPEDTAVYYCNRVFSYQYKRDYWGQGTQVTVSS	high polyreactivity
QVQLVESGGGLVQAGGSLRLSCAASGYMGWYRQAPGKERELVATISGSGGSTYYADSVKGRFTISRDNAKNTVYLQMNSLKPEDTAVYYCTTEIWGVNRSGYDYWGQGTQVTVSS	low polyreactivity
QVQLVESGGGLVQAGGSLRLSCAASGYNFDHYAMGWYRQAPGKERELVAAISRSAGSTYYADSVKGRFTISRDNAKNTVYLQMTSLKTEDTAVYYCNTVFRWIDRVLGYEYWGQGTQVTVSS	high polyreactivity
QVQLVESGGGLVQAGGSLRLSCAASGYNFYGYAMGWYRLAPGKERELVAAITVRGGSTYYADSVKGRFTISRDNAKNTVYLQMNCQKPEETAVYYCAAAPQFTFGVGYWGQGTQVTVSS	low polyreactivity
QVQLVESGGGLVQAGGSLRLSCAASGYSFSYYAMGWSRQAPGKERELVAAISWSGGSTYYADSVKGRFTISRDNAKNTVYLQMNRLKPEDTAVYYCATEVVAYRRYSAYGYWGQGTQVTVSS	high polyreactivity
QVQLVESGGGLVQAGGSLRLSCAASGYTDYAMGWYRQAPGKERELVATITSGDNTNYADSVKGRFTISRDNAKNTVDLQMNSLKPEDTAVYYCAAEYGMHYGIDYWGQGTQVTVSS	low polyreactivity
QVQLVESGGGLVQAGGSLRLSCAASGYTFAYYVMGWYRQAPGKERELVATIRSRAGRTYYADSVKERFTISRDNAKNTVYLQMNSLKPEDTAVYYCAAGWYYTYDYWGQGTQVTVSS	high polyreactivity
QVQLVESGGGLVQAGGSLRLSCAASGYTFAYYVMGWYRQAPGKERELVATIRSRAGRTYYADSVKGRFTISRDNAKNTVYLQLNSLKPEDTAVYYCAAGWYYTYDYWGQGTQVTVSS	high polyreactivity
QVQLVESGGGLVQAGGSLRLSCAASGYTFDKYAMGWYRPAPGKERELVAAITDGGSTNYADSVKGRFTISRDNAKNTVYLQMNSLKPEDTAVYYCNDELQWEVYYDRYPEYDHWGQGTQVTVSS	low polyreactivity
QVQLVESGGGLVQAGGSLRLSCAASGYTFDKYVMGWYRQAPGKERELVAAISRSGGRTYYADSVKGRFTISRDNAKNTVYLQMNSLKPEDTAVYYCNALWFYNGLSYEYWGQGTQVTVSS	high polyreactivity
QVQLVESGGGLVQAGGSLRLSCAASGYTFDQYAMGWYRQAPGKERELVAGIDSAGSTYYADSVKGRFTISRDNAKITVYLQMNSLKPEDTAVYYCNADDLNTEVPYYYWGQGTQVTGSS	low polyreactivity
QVQLVESGGGLVQAGGSLRLSCAASGYTFDYYAMGWYRQAPGKERELVAAISGSGSRTYYADSVKGRFTISRDNAKNTVYFQMNSLKPEDTAVYYCAAEYYYSDAGNYWGQGTQVTVSS	high polyreactivity
QVQLVESGGGLVQAGGSLRLSCAASGYTFEAYAMGWYRQAPGKERELVAAINYSGGSTYADSVKGRFTISRDNAKNTVYLQMNSLKPEDTAVYYCAAYGTKRYPYDYWGQGTQVTVSS	low polyreactivity
QVQLVESGGGLVQAGGSLRLSCAASGYTFENYVKGWYSQAPGKERELVAAISSRGGSTYYADSVKGRFTISRDNAKNTVYLQMNSLKPEDTAVYYCAARARQTGPYRSRYNYWGQGTQVTVSS	high polyreactivity
QVQLVESGGGLVQAGGSLRLSCAASGYTFFFNVMGWYRQAPGKERELVAAISYSGGSTNYADSVKGRFTISRDNAKNTVYLQMNSLKPEDTAVYYCNARTVSRNGYQDDYWGQGTQVTVSS	low polyreactivity
